Assay results as given in patent US20210261685A1 (Alector, published 2021).

T1: human MerTK endogenously expressed on cells (SK-MEL-5 cells; human macrophages) (human, UniProt Q12866 21-999)
T1 construct: also called MerTK on SK-MEL-5
T1 sequence: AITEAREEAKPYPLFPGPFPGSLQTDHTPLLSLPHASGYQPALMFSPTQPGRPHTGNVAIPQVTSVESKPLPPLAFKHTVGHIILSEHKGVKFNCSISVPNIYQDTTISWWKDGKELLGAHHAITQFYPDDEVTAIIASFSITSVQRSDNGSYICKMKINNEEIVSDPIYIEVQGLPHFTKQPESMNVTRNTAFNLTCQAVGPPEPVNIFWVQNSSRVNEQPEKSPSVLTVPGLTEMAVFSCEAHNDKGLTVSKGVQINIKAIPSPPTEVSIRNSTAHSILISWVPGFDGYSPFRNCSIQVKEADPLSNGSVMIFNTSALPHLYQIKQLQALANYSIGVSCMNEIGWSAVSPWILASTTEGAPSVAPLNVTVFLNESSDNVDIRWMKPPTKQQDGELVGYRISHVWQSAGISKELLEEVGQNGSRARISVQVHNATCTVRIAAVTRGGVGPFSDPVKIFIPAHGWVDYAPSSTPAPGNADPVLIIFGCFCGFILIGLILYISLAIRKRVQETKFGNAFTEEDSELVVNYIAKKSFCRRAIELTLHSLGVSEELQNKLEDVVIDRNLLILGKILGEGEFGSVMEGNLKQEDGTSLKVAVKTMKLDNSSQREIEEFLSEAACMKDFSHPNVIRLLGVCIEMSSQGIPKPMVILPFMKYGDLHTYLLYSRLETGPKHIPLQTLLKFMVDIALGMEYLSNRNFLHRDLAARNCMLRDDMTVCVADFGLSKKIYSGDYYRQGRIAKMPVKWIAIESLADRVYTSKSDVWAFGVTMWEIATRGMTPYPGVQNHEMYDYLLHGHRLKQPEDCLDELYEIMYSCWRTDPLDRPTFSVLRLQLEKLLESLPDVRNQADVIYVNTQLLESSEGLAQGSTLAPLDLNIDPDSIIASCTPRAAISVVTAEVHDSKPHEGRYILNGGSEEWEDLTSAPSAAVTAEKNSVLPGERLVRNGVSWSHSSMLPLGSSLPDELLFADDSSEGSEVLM

T2: Recombinant human MerTK human Fc Chimera protein (R&D systems, Cat #391-MR-100) (human, UniProt Q12866 26-499, limits assumed)
T2 construct: Bought; also called recombinant human MerTK protein; MerTK-Fc
T2 sequence: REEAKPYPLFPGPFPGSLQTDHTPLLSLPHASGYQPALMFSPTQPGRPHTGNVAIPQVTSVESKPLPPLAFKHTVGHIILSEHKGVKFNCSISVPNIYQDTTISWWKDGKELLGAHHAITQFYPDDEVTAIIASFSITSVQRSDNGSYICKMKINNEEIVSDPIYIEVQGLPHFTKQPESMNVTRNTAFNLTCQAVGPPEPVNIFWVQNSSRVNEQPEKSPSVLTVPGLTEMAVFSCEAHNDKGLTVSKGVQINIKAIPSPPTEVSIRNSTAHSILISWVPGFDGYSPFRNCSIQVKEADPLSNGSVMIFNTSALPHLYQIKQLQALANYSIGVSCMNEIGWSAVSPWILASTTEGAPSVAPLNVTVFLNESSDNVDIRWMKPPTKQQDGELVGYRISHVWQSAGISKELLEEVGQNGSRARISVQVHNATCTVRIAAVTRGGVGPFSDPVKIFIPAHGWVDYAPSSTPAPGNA


Tests used:
[1] = target: T1, human MerTK endogenously expressed on …; test: flow cytometry on SK-MEL-5 cells, Prism fit
Protocol: To determine whether recombinant anti-human MerTK antibodies of the present disclosure bind to human MerTK endogenously expressed on SK-MEL-5 cells and to CHO cells overexpressing mouse MerTK (CHO-muMerTK OE cells), the following experiments were performed. SK-MEL-5 cells and CHO-muMerTK OE cells were plated at 40,000 cells/well. Anti-MerTK antibodies were titrated to a final concentration range of between 66.6 nM to 4 pM and then added to the cells. After 30 min on ice, cells were washed and then stained with APC-conjugated mouse anti-human Kappa antibody (Southern Biotech Cat #9230-11, Birmingham, Ala.) and a viability die (Life Technologies) in the presence of Fc block solution on ice for 30 minutes, and then washed twice with cold FACS buffer (2% FBS in PBS). Cells were fixed with 4% paraformaldehyde in PBS. Stained cells were acquired on a BD FACS Canto II cytometer and the mean fluorescence intensity (MFI) was calculated with FlowJo software and K value was calculated with Prism software. […] A lower Kd value reflects higher binding of antibody to cells.

[2] = target: T2, Recombinant human MerTK human Fc …; test: competition ELISA, His-ProS on captured MerTK-Fc
In short: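 MerTK-Fc (2 μg/ml) captured on plate-bound anti-human IgG was exposed to anti-MerTK antibodies (66.6 nM-4 pM final) together with His-Gas6 at 3 μg/ml or His-ProS at 20 μg/ml for 1 h. Bound ligand was detected with HRP-anti-His and TMB. IC50 (nM) was derived from OD450 dose-response curves.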

Row | Binder | Kd [1] | IC50 [2]
1 | MTK-13 (antibody, human IgG1, V domains shown) VH: DVQLQESGPGLVKPSQSLSLTCSVTGYSITSGYYWNWIRQFPGNKLEWMGNIDYDGSNKYNPSLKNRISITRDTSKNHFFLKLNSVTPEDTATYFCARDGGNYRSFAYWGQGTLVTVSA VL: QIVLTQSPPIMSASPGEKVTITCSASSSVSYMYWFQQKPGTSPKLWIYSTFNLASGVPARFSGSGSGTSYSLTISRMEAEDVATYYCQQRSSYPFTFGSGTKLEIK | 0.68 nM | 3.76 nM
2 | MTK-14 (antibody, human IgG1, V domains shown) VH: QIQLVQSGPELKKPGETVKISCKASGYTFTNYGMNWVKQAPGKDLQWMGWINTYTGEPTYADDFTGRFAFSLETSASTAYLQINNLKNEDTATYFCAKGGHYAWFAYWGQGTLVTVSA VL: QIVLSQSPAILSASPGEKVTMTCRSSSSVSYMHWYQQKPGSSPKPWIYATSNLASGVPGRFSGSGSGTSYSLTISRVEAEDAATYYCQQWGSNPRTFGGGTKLEIK | 0.021 nM | 7.61 nM
3 | MTK-36 (antibody, human IgG1, V domains shown) VH: QVTLKESGPGILQPSQTLSLTCSFSGFSLSTFGMGVGWIRQPSGKGLEWLAHIWWYDDKYYEPALKSRLTISKDSSKNQVFLKIANVDTADTATYYCARIYYGTSYRYFDVWGTGTTVTVSS VL: QIVLSQSPAILSAFPGEKVTMTCRATSSVRYMHWYQQKPGSSPKPWIYATYNLTSGVPARFSGSGSGTSYSLTISRVEAEDAATYYCHQWSSNPYTFGGGTKLEIK | 1.42 nM | 1.4 nM
4 | MTK-02 (antibody, human IgG1, V domains shown) VH: QIQLVQSGPELKQPGETVKISCKASGYTFTDYGVNWVKQAPGKGLKWMGWINTYSGEPTYAGDFKGRFAFSLESSASTAFLQINNLKNEDMATYFCARRVRYWYFDVWGAGTSVTVSS VL: QIVLSQSPAILSASPGERVTMTCRANSSVSYMHWYQQKPGSSPKPWIYATSNLASGVPARFSASGSGTSYSLTVSRVEAEDAATYYCQQWGSNPFTFGSGTKLEIK | 0.024 nM | 3.94 nM
5 | MTK-28 (antibody, human IgG1, V domains shown) VH: QIQLVQSGPELKKPGETVKISCKASGYTFTTYGMSWVKQAPGKGLKWMGWINTYSGVPTYADDFKGRFAFSLETSASTAYLQINTLKNEDTTTYFCARFLRYYYFDYWGQGTTLTVSS VL: QIVLSQSPVILSASPGEKVTMTCRASSSVTYMHWYQQQPGSSPKPWIYATSNLASGVPARFSGSGSGTSYSLTISRVETEDAATYYCHQWSGNPTFGGGTKLEIN | 0.52 nM | 2.78 nM
6 | MTK-27 (antibody, human IgG1, V domains shown) VH: EVQLQQSGTELVRPGASVKLSCTASGFNIKDDYMHWVQQRPEQGLEWIGWIDPENGNTEYASKFQGKATITADASSNTAYLQLSSLTSEDTAVYYCSTLFSNYFDYWGQGTTLTVSS VL: DIVMTQSQKFMSTSVGDRVSITCKASQNVRTSVAWYQQKPGQSPKALIYLASNRHTGVPDRFTGSGSGTDFTLTISNVRSEDLADYFCLQHWNYPYTFGGGTKLEIK | 2.55 nM | 2.54 nM

Further binders by falling Kd [1], results first:

Row | Kd [1] | IC50 [2] | Binder
7 | 1.66 nM | 8.59 nM | MTK-16 (antibody, human IgG1, V domains shown) VH: LIQLVQSGPELKKPGETVKISCKASGYTFTNHGMNWVKQDPGKGLKWMGWINTYTGEPTYADDFKGRFVFSMETSASAAFLQINNLKNEDTATYFCARKGVTAARYFDYWGQGTTLTVSS VL: DIVMTQSPKFMSTSVGDRVSITCKASQNVRTAVAWYKKKPGQSPKALINLASNRHTGVPDRFTGSGSGTDFTLTISNVQSEDLADYFCLQHWNYPLTFGGGTKLEIK
8 | 1.38 nM | 1.2 nM | MTK-26 (antibody, human IgG1, V domains shown) VH: AVQFQESGPGLVKLSQSLSLTCSVTGYSITSGYYWDWIRQFPGNKLEWMGYISYDGSNNYNPSLKNRISITRDTSKNQFFLKLNSVTTEDTATYYCAREGGYYRSMDYWGQGTSVTVSS VL: QIVLTQSPAIMSASPGEKVTIACSASSSVSFMHWFQQKPGTSPRLWIYSTSNLASGVPARFSGSGSGTSYSLTISRMEAEDAATYYCQQRSSYPFTFGSGTKLEIK
9 | 1.29 nM | 0.924 nM | MTK-35 (antibody, human IgG1, V domains shown) VH: QVLLQQSGPELVKPGASVQLSCKASDYTFTSYDIHWVKQRPGQGLEWIGWIYPRDGYTKYNEIFKGKATLTVDTSSTTAYMELHSLTSEDSAVYFCARAYYTNWYYFDYWGQGTTLTVSS VL: EIVLTQSPTTMAASPGEKITITCRASSSISSHYLHWYQQKPGFSPKLLIYRTSNLASGVPARFSGSGSGTSYSLTIGTMEAEDVATYYCQQGSTIPLTFGAGTKLVLK
10 | 0.59 nM | 0.579 nM | MTK-24 (antibody, human IgG1, V domains shown) VH: QVQLQQPGAELVKPGASVKLSCKASGYTFTSYWMHWVKQRPGQGLEWIGMIHPNINTNYNEKFKSKATLTVDISSSTAYMQLSSLTSEDSAVYYCAKRSPYSNYDWYFDVWGTGTTVTVSS VL: DIQMTQSPASLSVSVGETVTITCRASENIYSNLAWYQQKQGKSPQLLVYAATNLADGVPSRFSGSGSGTQYSLKINSLQSEDFGSYYCQHFWGTPLTFGAGTKLELK
11 | 0.47 nM | 1.57 nM | MTK-30 (antibody, human IgG1, V domains shown) VH: QVQLQQPGTELVRPGASVKLSCKASGYTFTSYWMHWVKQRPGQGLEWIGNLNPNNGGTYYNEKFKSKATLTVDKSSSTAYMQLSSLTSEDSAVYYCARQILLYFDYWGQGTTLTVSS VL: DVLMTQTPLSLPVSLGDQASISCRSSQSIVHSNGDTYLEWYLQKPGQSPKLLIYKVSNRFSGVPDRFSGSGSGTDFTLKISRVEAEDLGVYYCFQGSHVPWTFGGGTKLEIK
12 | 0.4 nM | 2.78 nM | MTK-32 (antibody, human IgG1, V domains shown) VH: QIQLVQSGPELKKPGETVKISCKASGYTFTSYGMSWVHQAPGKGLKWLGWINTYSGVPTYADDFRGRFAFSLDTSVSTASLEINNLQNEDTATYFCAREDNWAWFAYWGQGTLVTVST VL: QIVLSQSPAILSASPGEKVTMTCRATSSVGYMHWYQRKPGSSPKPWIYATSNLASGVPARFSGSGSGTSYSLTISRVEAEDAATYYCQQWSSNPRTFGGGTKLEIK
13 | 0.076 nM | 3.8 nM | MTK-10 (antibody, human IgG1, V domains shown) VH: QVTLKESGPGILQPSQTLSLTCSFSGFSLTTSGMGVGWIRQPSGKGLEWLAHIWSDDDKRSNPALKSRLTISQDSSTNQVFLKIASVDTADSATYYCSHLTPVREFAYWGPGTLVTVSE VL: DIQMTQTTSSLSASLGDRVTISCSASQGISNYLNWFQQKPDGTVKLLIYYTSRLHSGVPSRFSGSGSGTDFSLTISNLEPEDIATYYCQQYTKLPYTFGGGTKLEIK
14 | 0.005 nM | 2.17 nM | MTK-06 (antibody, human IgG1, V domains shown) VH: QIQLVQSGPELKKPGETVKISCKASGYTFTNYGMNWVKQAPGKGLKWMGWINTNTGEPTYAEEFKGRFAFSLETSASTAYLQINNLKNEDTATYFCARYYNYWYFDVWGAGTTVTVSS VL: QIVLSQSPAILSASPGEKVTMTCRASSSVSYMHWYQQKPGSSPKPWIYATSNLASGVPARFSGSGSGTSYSLTISRVEAEDAATYYCQQWSSKPPTFGGGTKLEIK
